Measurements as given in article PMC9911985 (Journal of Molecular Biology, 2023).
Where no end group is shown, it is not given here. MBP = not defined here

What follows are binders tested against nsp7 with a C-terminal strep-tag II (nsp7-strep), SARS-CoV-2 nonstructural protein 7 (SARS-CoV-2, UniProt P0DTD1 3860-3942) (assay: pull-down).

| Binder | binding result |
| --- | --- |
| {6xHis-MBP}-GWYIVFSCILLYVVFQKLSARLRALRQRQLDR (domain or fragment, reading uncertain) [6xHis-MBP-selenos 34–65] | binds |
| {6xHis-MBP}-GWYIVFSCILLYVVFQKLSARLRALR (domain or fragment, reading uncertain) [6xHis-MBP-selenos 34–59] | binds |
| {6xHis-MBP}-SCILLYVVFQKLSARLRALR (domain or fragment, reading uncertain) [6xHis-MBP-selenos 40–59] | binds |
| {6xHis-MBP}-SCILLYVVFQKLSARLRALRQRQLDR (domain or fragment, reading uncertain) [6xHis-MBP-selenos 40–65] | binds |
